# Test results from patent US20070128190A1 (GLENMARK PHARMACEUTICALS S A, published 2007).
# T1: GST-rhesus α2 I domain fusion protein (rhesus monkey, UniProt P17301 153-368 (human entry))
# T1 construct: also called rhesus GST-α2 I; not shown: glutathione S-transferase tag encoded by vector pGEX-2TK
# T1 sequence: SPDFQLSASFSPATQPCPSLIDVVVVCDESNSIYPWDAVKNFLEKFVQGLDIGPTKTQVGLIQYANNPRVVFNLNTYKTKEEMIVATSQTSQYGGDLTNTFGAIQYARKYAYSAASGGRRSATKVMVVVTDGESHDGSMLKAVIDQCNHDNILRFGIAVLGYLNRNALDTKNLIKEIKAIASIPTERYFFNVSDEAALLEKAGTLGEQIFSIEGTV
# T2: GST-human α2 I domain fusion protein (human, UniProt P17301 153-368)
# T2 construct: the reverse primer ends at ...SIEGTV; also called GST-α2 I domain; hα2I; not shown: glutathione S-transferase tag encoded by vector pGEX-2TK
# T2 sequence: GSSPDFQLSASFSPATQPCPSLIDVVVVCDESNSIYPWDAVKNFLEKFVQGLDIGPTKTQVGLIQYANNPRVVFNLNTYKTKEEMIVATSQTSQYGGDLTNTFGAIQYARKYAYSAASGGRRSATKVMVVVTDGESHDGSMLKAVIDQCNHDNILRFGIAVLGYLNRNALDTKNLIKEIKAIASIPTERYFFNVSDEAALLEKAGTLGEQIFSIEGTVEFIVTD
# T3: GST-cynomolgus α2 I domain fusion protein of Example 18 (sequence identical to the human I domain) (cynomolgus monkey, UniProt P17301 153-368 (human entry))
# T3 construct: also called GST-cynomolgous-α2 I domain fusion protein; not shown: glutathione S-transferase tag, vector not restated
# T3 sequence: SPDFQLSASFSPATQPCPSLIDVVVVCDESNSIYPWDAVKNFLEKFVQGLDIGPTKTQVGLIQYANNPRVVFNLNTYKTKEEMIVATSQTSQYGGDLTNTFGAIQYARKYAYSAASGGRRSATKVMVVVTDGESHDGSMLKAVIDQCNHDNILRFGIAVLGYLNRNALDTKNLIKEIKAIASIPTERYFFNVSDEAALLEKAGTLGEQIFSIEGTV
# Assays:
# [1] = biological target: T1, GST-rhesus α2 I domain fusion protein; assay: ELISA, GST fusion protein on immobilized TMC-2206, Kd estimated from EC50
# Procedure: The fusion proteins were then expressed and purified as described above for the human GST-α2 I domain fusion protein. […] Therefore, these and the primate fusion proteins were further purified by size exclusion chromatography on a Sephadex 75 10/30 (GE-Amersham) column (primate) by FPLC on an Akta-Basic FPLC system (GE-Amersham) to yield a monomeric fraction. […] The Kᵢ assays were performed as described above in Example 2. […] Plates were sealed and coating occurred overnight at 4° C. The next morning, the plates were washed twice with TBS solution and then blocked using 200 μL of the blocking solution described above for 1 hour at room temperature with shaking. After blocking, the blocking solution was removed but the wells were not washed. Instead, a serial dilution of GST fusion protein was made, added to the wells and then incubated for 2 hours at room temperature with shaking. The wells were then aspirated and a TBS washing buffer applied for 5 minutes at room temperature. The washing step was repeated twice more before the secondary antibody was applied. The secondary antibody step consisted of Amersham's HRP-conjugated rabbit anti-GST antibody diluted 1:2000 in blocking buffer. […] The reaction within the wells was then read and quantified by spectrophotometric absorption using the Molecular Dynamics plate reader and associated Softmax software, respectively. […]
# [2] = biological target: T4, human platelet α2β1 integrin (immobilized on microtiter plates) (human, UniProt P17301 30-1181; P05556 21-798); assay: competition with Eu-TMC-2206 on human platelet α2β1-coated plate
# T4 construct: plates custom-coated with human platelet α2β1 by GTI Inc; also called immobilized α2β1 integrin; α2β1-coated plates
# [3] = biological target: T5, BSA (UniProt P02769 25-607); assay: Eu-labelled antibody on BSA-coated control wells
# T5 construct: also called BSA coated control wells
# [4] = biological target: T2, GST-human α2 I domain fusion protein; assay: Eu-TMC-2206 on immobilized GST-α2 I domain at 37 °C, Scatchard
# [5] = biological target: T3, GST-cynomolgus α2 I domain fusion …; assay: SPR (Biacore 2000), antibody captured, GST-α2 I domain in solution
# T4 sequence (P17301 30-1181 E534K limits assumed, chain 1 of 2): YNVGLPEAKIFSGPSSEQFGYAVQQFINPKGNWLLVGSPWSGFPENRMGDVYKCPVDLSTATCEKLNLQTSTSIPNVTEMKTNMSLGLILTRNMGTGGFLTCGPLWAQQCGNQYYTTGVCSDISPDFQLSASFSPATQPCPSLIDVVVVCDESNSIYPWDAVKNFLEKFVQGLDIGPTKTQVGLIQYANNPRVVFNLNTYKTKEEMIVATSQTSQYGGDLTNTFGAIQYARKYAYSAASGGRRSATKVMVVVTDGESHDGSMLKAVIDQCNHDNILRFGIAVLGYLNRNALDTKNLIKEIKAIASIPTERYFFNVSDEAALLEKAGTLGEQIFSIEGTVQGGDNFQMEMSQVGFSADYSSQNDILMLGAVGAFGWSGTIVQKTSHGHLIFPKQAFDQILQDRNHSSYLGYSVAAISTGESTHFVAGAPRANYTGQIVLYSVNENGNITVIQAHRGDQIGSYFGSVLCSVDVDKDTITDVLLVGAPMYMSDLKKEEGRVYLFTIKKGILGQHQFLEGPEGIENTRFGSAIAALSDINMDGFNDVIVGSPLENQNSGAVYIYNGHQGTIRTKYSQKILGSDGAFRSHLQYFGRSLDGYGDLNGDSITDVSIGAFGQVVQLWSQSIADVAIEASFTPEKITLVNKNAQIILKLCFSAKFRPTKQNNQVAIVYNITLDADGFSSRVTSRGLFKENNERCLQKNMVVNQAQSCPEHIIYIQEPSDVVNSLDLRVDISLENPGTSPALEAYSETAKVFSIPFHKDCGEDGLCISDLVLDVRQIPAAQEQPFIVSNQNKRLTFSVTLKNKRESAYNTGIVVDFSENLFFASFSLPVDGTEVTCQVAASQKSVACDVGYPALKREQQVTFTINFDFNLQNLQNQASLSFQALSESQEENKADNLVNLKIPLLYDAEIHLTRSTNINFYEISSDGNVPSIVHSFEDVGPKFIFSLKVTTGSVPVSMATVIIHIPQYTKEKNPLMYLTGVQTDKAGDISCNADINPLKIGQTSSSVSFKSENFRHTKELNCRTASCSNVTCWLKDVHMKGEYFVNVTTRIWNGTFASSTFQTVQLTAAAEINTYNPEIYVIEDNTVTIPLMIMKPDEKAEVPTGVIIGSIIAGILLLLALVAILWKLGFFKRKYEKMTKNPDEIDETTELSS
# T4 sequence (P05556 21-798 limits assumed, chain 2 of 2): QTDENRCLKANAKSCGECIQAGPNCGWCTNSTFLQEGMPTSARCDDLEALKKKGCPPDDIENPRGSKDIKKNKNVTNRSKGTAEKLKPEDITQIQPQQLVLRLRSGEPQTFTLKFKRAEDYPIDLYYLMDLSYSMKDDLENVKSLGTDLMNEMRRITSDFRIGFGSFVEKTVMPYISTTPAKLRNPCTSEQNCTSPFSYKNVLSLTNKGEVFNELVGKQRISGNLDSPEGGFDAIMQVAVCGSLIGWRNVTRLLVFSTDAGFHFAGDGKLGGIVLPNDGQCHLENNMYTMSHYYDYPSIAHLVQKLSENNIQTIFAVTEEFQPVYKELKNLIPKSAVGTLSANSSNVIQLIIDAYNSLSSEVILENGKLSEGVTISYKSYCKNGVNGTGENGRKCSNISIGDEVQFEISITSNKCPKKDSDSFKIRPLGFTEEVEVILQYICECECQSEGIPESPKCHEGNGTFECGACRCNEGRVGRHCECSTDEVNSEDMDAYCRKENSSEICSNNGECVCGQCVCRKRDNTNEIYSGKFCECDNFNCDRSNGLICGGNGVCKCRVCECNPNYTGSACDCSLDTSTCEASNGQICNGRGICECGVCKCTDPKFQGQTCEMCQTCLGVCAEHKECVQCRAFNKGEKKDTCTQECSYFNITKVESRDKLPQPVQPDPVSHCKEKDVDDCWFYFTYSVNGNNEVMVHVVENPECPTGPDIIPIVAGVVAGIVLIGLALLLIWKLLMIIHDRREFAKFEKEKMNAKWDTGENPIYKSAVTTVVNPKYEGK
# T5 sequence (P02769 25-607 limits assumed): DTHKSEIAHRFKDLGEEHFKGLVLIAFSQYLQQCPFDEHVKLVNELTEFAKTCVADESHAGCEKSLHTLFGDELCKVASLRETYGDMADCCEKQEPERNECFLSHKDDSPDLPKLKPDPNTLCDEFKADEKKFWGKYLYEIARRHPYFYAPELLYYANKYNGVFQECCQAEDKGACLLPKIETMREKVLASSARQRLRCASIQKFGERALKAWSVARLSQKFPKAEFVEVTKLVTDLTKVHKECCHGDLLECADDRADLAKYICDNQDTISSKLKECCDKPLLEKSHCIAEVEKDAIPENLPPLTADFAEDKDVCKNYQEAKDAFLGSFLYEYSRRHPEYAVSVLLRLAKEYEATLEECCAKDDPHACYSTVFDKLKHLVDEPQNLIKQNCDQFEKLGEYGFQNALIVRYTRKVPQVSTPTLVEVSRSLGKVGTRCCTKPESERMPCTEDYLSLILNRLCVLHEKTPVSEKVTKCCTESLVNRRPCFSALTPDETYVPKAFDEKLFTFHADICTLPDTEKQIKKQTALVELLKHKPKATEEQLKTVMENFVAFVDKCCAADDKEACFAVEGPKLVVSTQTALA
binder,measurement,setting,value
"TMC-2206 (antibody, mouse IgG1, V domains shown, murine IgG1/κ secreted by hybridoma BHA2.1; labelled with Eu-N1-ITC where used as tracer; also called BHA2.1) VH: QVQLKESGPGLVAPSQSLSITCTVSGFSLTNYGIHWVRQPPGKGLEWLGVIWARGFTNYNSALMSRLIITKDNSQSQVFLKMNSLQPDDSATYFCARANDGVYYAMDYWGQGTSVTVSS VL: QFVLTQSPAFLSASPGEKVTMTCSANSSVNYIHWYQQKSGTSPKKWIYDTSKLASGVPVRFSGSGSGTSYSLTISSMETEDAATYYCQQWTTNPLTFGAGTRVELK",Kd,[1],40 pM
same,Ki,[2],280 pM
same,binding result,[3],no binding
same,Kd,[4],200 pM
"Humanized TMC-2206 (hIgG4/κ VH12.0/VL10.0Q) (antibody, labelled with Eu or Alexa-488 in some assays) heavy: not shown light: DFVMTQSPAFLSVTPGEKVTITCSAQSSVNYIHWYQQKPDQAPKKLIYDTSKLASGVPSRFSGSGSGTDYTFTISSLEAEDAATYYCQQWTTNPLTFGQGTKVEIKRTVAAPSVFIFPPSDEQLKSGTASVVCLLNNFYPREAKVQWKVDNALQSGNSQESVTEQDSKDSTYSLSSTLTLSKADYEKHKVYACEVTHQGLSSPVTKSFNRGEC",Kd,[5],5000 pM
same,koff,[5],0.003 s⁻¹
same,kon,[5],500000 M⁻¹ s⁻¹
